Results published in patent US6846636B1, “Methods and compositions for HDL holoparticle uptake receptor” (American National Red Cross, priority 1998, dated 2005).

Assays:
[1] = tested on: RA/Bt2cAMP-treated F9 cells; test: [125I]-HDL internalization and degradation assay; assay type: cell-based, mouse; conditions: [125I]-HDL 2 μg/ml, 6.5 h at 37° C.; unlabeled HDL 80 μg/ml, RAP 1 μM, chloroquine 50 μM, anti-cubilin IgG 150 μg/ml
Description: HDL internalization and degradation assays were performed in a manner similar to LDL and apolipoprotein J internalization and degradation assays described previously (Stefansson et al., 1995; Kounnas et al., 1995). ApoE-free HDL (HDL3) was labeled with [^125I]-iodine using the iodine monochloride method (Goldstein et al., 1983). RA/Bt2cAMP-treated and -untreated F9 cells were seeded onto gelatin-coated 3.83 cm^2 wells (Corning, Corning, N.Y.) at 1.5-1.75×10^5 cells/well and allowed to grow for 18 h at 37° C., 5% CO2. Prior to the addition of [^125I]-HDL, the cells were washed with serum-free DMEM and incubated in the assay medium (DMEM, 20 mM HEPES, ITS, penicillin/streptomycin, and 1.5% BSA) containing unlabeled HDL3 (80 μg/ml), RAP (1 μM), chloroquine (50 μM) (Sigma) or BSA (10 μM) and incubated for 0.5 hours at 37° C., 5% CO2. The medium was then removed and [^125I]-HDL3 (2 μg/ml) in serum-free medium or in serum-free medium containing unlabeled HDL3 (80 μg/ml), RAP (1 μM), chloroquine (50 μM) or BSA (10 μM) was added and incubated with the cells for 6.5 h at 37° C., 5% CO2. The conditioned culture medium was treated with trichloroacetic acid (final concentration 10%) and centrifuged at 10,000×g for 10 min. The amount of radioactivity present in the supernatant was taken to represent the amount of degraded HDL (Goldstein and Brown, 1974). […] The released cells were pelleted by centrifugation at 1,000×g for 15 min and the amount of radioactivity in the cell pellet measured.
HDL internalization and degradation assays were performed as described previously for LDL and apolipoprotein J (Hammad et al., 1997; Kounnas et al., 1995; Stefansson et al., 1995a). […] The amount of radioactivity in the supernatant was taken to represent the amount of degraded HDL (Goldstein and Brown, 1974). […] The released cells were pelleted by centrifugation at 1,000×g for 15 min and the amount of radioactivity in the cell pellet was measured and taken to represent the amount of internalized HDL.

[2] = tested on: visceral yolk sac endoderm; test: DiI-HDL uptake by mouse embryo yolk sac (ex utero culture, confocal microscopy); conditions: ± S.D.; DiI-HDL 1 μg/ml 1 h; RAP, ovalbumin 1 μM; IgGs 400 μg/ml; p<0.01 vs control
Description: Embryos (8-8.5 days post-conception) were removed from timed pregnant ICR mice (Harlan Sprague Dawley, Inc.) so as to leave visceral yolk sac endoderm intact and placed in DMEM. The embryos were then incubated in DMEM containing RAP (1 μM), ovalbumin (1 μM), rabbit anti-cubilin IgG (400 μg/ml) or normal rabbit IgG (400 μg/ml) for 0.5 h at 37° C., 5% CO2. DiI-HDL was added to a final concentration of (1 μg/ml) and incubated for 1 h at 37° C., 5% CO2. The medium was removed and the embryos gently washed with dPBS and fixed with 3% paraformaldehyde for 15 min. The fixed embryos were placed in dPBS, 0.1% azide in a well slide and examined by laser scanning confocal microscopy. The intensity of yolk sac fluorescence in mouse embryos incubated with DiI-HDL in the presence of either RAP, ovalbumin, anti-cubilin IgG or control IgG was evaluated by seven people in a double blinded fashion. The assessments of relative intensity were analyzed by a nonparametric statistical test using RANK and ANOVA procedures (SAS Institute, Inc., Cary, N.C.).

B1: RAP: 39 kDa chaperone protein that inhibits ligand binding to LDLR family members; recombinant human RAP (protein, UniProt P30533 35-357, looked up)
Alpha-2-macroglobulin …: YSREKNQPKPSPKRESGEEFRMEKLNQLWEKAQRLHLPPVRLAELHADLKIQERDELAWKKLKLDGLDEDGEKEARLIRNLNVILAKYGLDGKKDARQVTSNSLSGTQEDGLDDPRLEKLWHKAKTSGKFSGEELDKLWREFLHHKEKVHEYNVLLETLSRTEEIHENVISPSDLSDIKGSVLHSRHTELKEKLRSINQGLDRLRRVSHQGYSTEAEFEEPRVIDLWDLAQSANLTDKELEAFREELKHFEAKIEKHNHYQKQLEIAHEKLRHAESVGDGERVSRSREKHALLEGRTKELGYTVKKHLQDLSGRISRARHNEL
degradation of [125I]-HDL [1]: inhibited the endocytosis and degradation
internalization (endocytosis) of [125I]-HDL [1]: inhibited the endocytosis and degradation
fluorescence intensity RANK score of DiI-HDL incorporation into extraembryonic endoderm [2]: 9.77±0.22
